Assay results: US10485844B2, “Methods for treating severe atopic dermatitis by administering an IL-4R inhibitor” (Regeneron Pharmaceuticals, Inc., priority 2016, dated 2019)
Read-outs that look alike come from different tables or passages of the source.

Tests used:
[1] = Phase 2a pediatric study: pharmacokinetic profile of dupilumab; assay type: in vivo, human; settings: pediatric patients with AD, compared with adults
Protocol: The study consisted of a screening period (day −35 to day −1), a baseline visit, Part A (including a single-dose treatment followed by an 8-week semi-dense PK sampling period), and Part B (including a 4-week repeat-dose treatment period [4 weekly doses] followed by an 8-week follow-up period).
Safety and tolerability was assessed by vital signs, physical examinations, clinical laboratory tests, and clinical evaluations. Patients were asked to monitor all adverse events (AEs) experienced from the time of informed consent/assent until their last study visit. Serum samples were collected for assay of dupilumab levels, and PK parameters were calculated using the dupilumab concentration data. Serum samples were collected for assay of ADA, and exploratory analyses. Efficacy was assessed during the study at specified clinic visits using the Pruritus NRS, SCORAD, and EASI that measure the extent and severity of AD, and the IGA that rates the overall severity of AD.

[2] = system: adults with moderate-to-severe AD; settings: for decrease in mean EASI (SD) score: 600 mg on Day 8, then 300 mg weekly
Protocol: Subcutaneous dupilumab was administered as a 600 mg loading dose on Day 8, followed by a weekly dose of 300 mg from Day 15 to Day 50. PK parameters included Geometric Mean Ratios (GMR) of AUClast (area under the plasma concentration-time curve from time zero to the time of the last quantifiable concentration) and Cmax (maximum observed plasma concentration) measured at Day 1 and Day 36, while efficacy assessments included changes in Eczema Area and Severity Index (EASI) scores (scale 0-72).

[3] = Functional dupilumab concentrations in serum, two 16-week phase 3 monotherapy studies; assay type: in vivo, human; settings: for mean functional concentration of dupilumab in serum: monotherapy
Protocol: The studies were multicenter, randomized, double-blind, placebo-controlled studies of subcutaneously administered dupilumab in 1379 adult patients; each had duration of 16 weeks (NCT02277743 and NCT02277769). Patients were randomized 1:1:1 to placebo, dupilumab 300 mg every week (qw), and dupilumab 300 mg every 2 weeks (q2w); patients randomized to dupilumab received a loading dose of 600 mg. Presented here are functional dupilumab concentrations measured in serum from blood samples at various pharmacokinetic time-points and analyzed using descriptive statistics.

Question: Which results are given for “dupilumab: fully human anti-IL-4R antibody; heavy chain SEQ ID NO: 9, light chain SEQ ID NO: 10”?
Answer: pharmacokinetic profile [1]: consistent with adults; decrease in mean EASI (SD) score ([2]; Day 35): 59.3% (37.6); decrease in mean EASI (SD) score ([2]; Day 50): 87.2% (13.4); patients with at least one adverse event (AE) ([2]; in vivo): 3 patients; serious AE leading to treatment discontinuation (systemic inflammatory response syndrome) ([2]; in vivo): 1; ratio (qw:q2w) of mean functional concentrations ([3]; Week 16): 2.4; mean functional concentration of dupilumab in serum ([3]; dupilumab 300 q2w (600 mg loading dose), Week 16): ~75 mg/L; mean functional concentration of dupilumab in serum ([3]; dupilumab 300 qw (600 mg loading dose), Week 16): 180 mg/L; share of the Week 12 Ctrough reached by Week 4 ([3]; q2w dose, 600 mg loading dose): ~80%; share of the Week 12 Ctrough reached by Week 4 ([3]; qw dose): ~67%
